Laboratory results published in patent publication US20150010495A1 (GLYCOTOPE, published 2015).

Biological target: T1, […]n, n = 5 (100-mer), non-glycosylated (human)
T1 construct: non-glycosylated MUC1 peptide with five tandem repeats in series
Experiment: peptide ELISA, OD 492 nm; limit of the class, member by Table 2; reference: 20-mer

ratio of the optical density 100-mer/20-mer: > 3
B1: HMFG-1 (antibody, V domains shown)
VH: QVQLVQSGAEVKKPGASVKVSCKASGYTFSAYWIEWVRQAPGKGLEWVGEILPGSNNSRYNEKFKGRVTVTRDTSTNTAYMELSSLRSEDTAVYYCARSYDFAWFAYWGQGTLVTVSS
VL: DIQMTQSPSSLSASVGDRVTITCKSSQSLLYSSNQKIYLAWYQQKPGKAPKLLIYWASTRESGVPSRFSGSGSGTDFTFTISSLQPEDIATYYCQQYYRYPRTFGQGTKVEIKR
